According to US20140227188:

Test system: T1, Cathepsin E-activatable 5-ALA prodrug, H-Arg-Gln-Ala-Gly-Phe-Ser-Leu-5-ALA-OH
T1 sequence: RQAGFSL

Substance	proteolytic cleavage of the prodrug, LC-MS (50 pmol and 100 pmol enzyme)	proteolytic cleavage of the prodrug, fragments identified by LC-MS (50 pmol enzyme)
Cathepsin B (purified proteolytic enzyme)	A higher concentration of Cath B and D (100 pmol) showed no sign of cleavage of the 5-ALA prodrug at the link between 5-ALA and the rest of the peptide substrate	–
Cathepsin E (purified proteolytic enzyme)	–	Cath E was the only tested protease capable of cleaving the 5-ALA prodrug to two major metabolic fragments
Cathepsin D (purified proteolytic enzyme)	A higher concentration of Cath B and D (100 pmol) showed no sign of cleavage of the 5-ALA prodrug at the link between 5-ALA and the rest of the peptide substrate	–
